Data published in patent US20050013808A1, “Nitroreductase enzymes” (priority 2001, published 2005).
Values joined by “and” are separate entries in the source; they are usually repeats but may differ in a detail not shown here. Equal values may be shown once.

Columns and labels:
[1] = Steady state kinetics of purified NTR, variable substrate NADH; format: biochemical; details: fixed substrate nitrofurazone; for Km: 10 mM Tris HCl pH 7.0, 25° C., 4% DMSO
Description: (§1) Wild type NTR and selected mutants were purified as described by Lovering et al., 2001. Steady state kinetic studies were carried out by monitoring the disappearance of nitrofurazone ( ? =12,960, Zenno, et al., 1994) and nitrofurantoin ( ? =12,020, McOsker, et al., 1992) at 420 nm or the disappearance of reduced benzoquinone ( ? =18,5000), 2-nitrofuran ( ? =10,250, McOsker, et al., 1992), 2-nitrobenzamide ( ? =9,750, McOsker, et al., 1992) and 4 nitrobenzamide ( ? =9,720, McOsker, et al., 1992) at 300 nm. The formation of the 4 hydroxylamine product of CB1954 reduction was monitored at 420 nm ( ? =7900, Richard Knox, personal communication).
(§2) All reactions were performed in quartz cuvettes with either a 0.1-, 0.5-, or 1-cm pathlength. In all cases the reaction was initiated by the addition of a small amount of cold enzyme solution to the reaction mix. Assays were performed in 10 mM Tris HCL pH 7.0. The temperature of each reaction was maintained at 25° C. by means of a circulating water bath. All substrates examined were dissolved in DMSO, with the final concentration of organic solvent not exceeding 4% (v/v), concentrations>5% (v/v) give definable enzyme inhibition. In all assay the final DMSO concentration was at 4%. All steady state data were collected in an aerobic environment. Kinetic data were collected at concentration ranges extending from 0.1 of Km to the maximum possible concentration permitted by substrate solubility or optical absorbance. In all cases maximum substrate concentrations exceeded 5×Km. All data was analysed using the commercial package Sigma Plot™ and fit with non-linear regression to a rectangular hyperbola of the form: y=ax/b+x

[2] = Steady state kinetics of purified NTR, variable substrate nitrofurazone; format: biochemical; details: fixed substrate NADH
Description: as §1, §2

[3] = Steady state kinetics of purified NTR, variable substrate CB1954; format: biochemical; details: for kinetic parameters compared with wild type: second substrate CB1954, nucleotide NADH; for Km / kcat: variable substrate CB1954, fixed substrate NADH
Description: as §1, §2

[4] = system: UT5600 cells (NTR−) lysogens; experiment: Replica-plate screening of mutant NTR-expressing lysogens on increasing CB1954 (growth score); format: cell-based, E. coli; parameters: key to Score: 0: Good growth on all concentrations of CB 1954 = vector; Good growth on 100 and 200, faint on 300, ring of growth on 400 μM; Good growth on 100 and 200, ring growth on 300, none or very faint on 400 μM; Good growth on 100, faint to good on 200, none or very faint on 300 and 400 μM; 4: Good growth on 100 μM, none to ring growth on 200 μM = wild type; Good growth on 50 μM, ring on 100 μM, none on 200, 300 or 400 μM; 6: Faint growth on 50 μM, ring on 100 μM; 7: Good growth on 50 μM, none on 100 μM; 8: Ring growth on 50 μM, none on 100 μM; 9: None or very faint growth on 50 μM, none on 100 μM; 10: None or ring growth on 35 μM; details: for Score: growth of lysogens on agar with kanamycin, IPTG and 0-400 μM CB1954, wild type = 4, higher = more sensitive
Description: The ligation mix was packaged (Stratagene) into lambda bacteriophage particles that were used to infect UT5600 cells (NTR ^−). As a control wild type NTR was also cloned into this vector (JG16C2). Kanamycin resistant lysogens were selected on agar plates ([…] kanamycin) then individually grown overnight in a well of a 96-well plate in LB+Kanamycin. The clones were replica plated on to a series of plates containing Tris-buffered (50 mM, pH 7.5) LB agar with kanamycin, IPTG (0.1 mM) and CB1954 at a concentration of 0, 25, 35, 50, 100, 200, 300 or 400 μM (see FIG. 3). […]

[5] = system: UT5600 cells (NTR−) lysogens; experiment: Survival curve (colony count) IC50 of CB1954 in NTR-expressing lysogens; format: cell-based, E. coli; details: concentration of CB1954 giving 50% reduction in colony number after 36h growth; lysogen expressing the named NTR
Description: To quantify the improvement in NTR activity in the clones in a less subjective way, a few clones were selected for further study by determining their survival curves. The lysogens were grown overnight in LB +kanamycin and diluted to approximately 1 cell per μl based on the OD. In duplicate, 100 μl diluted cells were plated into Tris-buffered LB plates containing kanamycin, IPTG and 0-400 μM CB1954. After 36h growth the number of colonies on each plate were counted and expressed as a percentage of the number present on the plates with no CB1954. Survival curves showing % survival versus concentration of CB 1954 were plotted (see examples in FIG. 7) and the IC50 determined as the concentration of CB 1954 which kills gives a 50% reduction in colony number (Table 3 and FIG. 8). A few clones containing mutations resulting in an enhanced sensitivity to CB 1954 were selected for further study.

B1: T41L: NTR mutant, threonine 41 to leucine (protein)
chain: MDIISVALKRHSTKAFDASKKLTPEQAEQIKTLLQYSPSSLNSQPWHFIVASTEEGKARVAKSAAGNYVFNERKMLDASHVVVFCAKTAMDDVWLKLVVDQEDADGRFATPEAKAANDKGRKFFADMHRKDLHDDAEWMAKQVYLNVGNFLLGVAALGLDAVPIEGFDAAILDAEFGLKEKGYTSLVVVPVGHHSVEDFNATLPKSRLPQNITLTEV
Molecule B1 has a kcat [1] of 2111 ± 35 min⁻¹, a Km [1] of 5000 ± 2000 nM and a Km [2] of 79 ± 11 µM. For the same molecule, the kcat [2] was 2108.4 ± 36.7 min⁻¹, the “kinetic parameters compared with wild type” value [3] was “best bimolecular rate constant vs. the second substrate” and the Km [3] was 871 ± 77 µM. The kcat [3] was 972 ± 82 min⁻¹, the Score [4] was 5-7 and the IC50 [5] was 38 µM.

B2: S40A (protein)
chain: MDIISVALKRHSTKAFDASKKLTPEQAEQIKTLLQYSPSATNSQPWHFIVASTEEGKARVAKSAAGNYVFNERKMLDASHVVVFCAKTAMDDVWLKLVVDQEDADGRFATPEAKAANDKGRKFFADMHRKDLHDDAEWMAKQVYLNVGNFLLGVAALGLDAVPIEGFDAAILDAEFGLKEKGYTSLVVVPVGHHSVEDFNATLPKSRLPQNITLTEV
With B2 the Score [4] was 5-7 and the IC50 [5] was 100 µM and 84 µM.

B3: N71S (protein)
chain: MDIISVALKRHSTKAFDASKKLTPEQAEQIKTLLQYSPSSTNSQPWHFIVASTEEGKARVAKSAAGNYVFSERKMLDASHVVVFCAKTAMDDVWLKLVVDQEDADGRFATPEAKAANDKGRKFFADMHRKDLHDDAEWMAKQVYLNVGNFLLGVAALGLDAVPIEGFDAAILDAEFGLKEKGYTSLVVVPVGHHSVEDFNATLPKSRLPQNITLTEV
B3 gave a Score [4] of 7 and an IC50 [5] of 55 µM.

B4: T41G (protein)
chain: MDIISVALKRHSTKAFDASKKLTPEQAEQIKTLLQYSPSSGNSQPWHFIVASTEEGKARVAKSAAGNYVFNERKMLDASHVVVFCAKTAMDDVWLKLVVDQEDADGRFATPEAKAANDKGRKFFADMHRKDLHDDAEWMAKQVYLNVGNFLLGVAALGLDAVPIEGFDAAILDAEFGLKEKGYTSLVVVPVGHHSVEDFNATLPKSRLPQNITLTEV
For B4, the Score [4] was 5-7 and the IC50 [5] was 120 µM.

B5: S40T (protein)
chain: MDIISVALKRHSTKAFDASKKLTPEQAEQIKTLLQYSPSTTNSQPWHFIVASTEEGKARVAKSAAGNYVFNERKMLDASHVVVFCAKTAMDDVWLKLVVDQEDADGRFATPEAKAANDKGRKFFADMHRKDLHDDAEWMAKQVYLNVGNFLLGVAALGLDAVPIEGFDAAILDAEFGLKEKGYTSLVVVPVGHHSVEDFNATLPKSRLPQNITLTEV
For B5, the Score [4] was 5 and the IC50 [5] was 102 µM.

B6: G120A (protein)
chain: MDIISVALKRHSTKAFDASKKLTPEQAEQIKTLLQYSPSSTNSQPWHFIVASTEEGKARVAKSAAGNYVFNERKMLDASHVVVFCAKTAMDDVWLKLVVDQEDADGRFATPEAKAANDKARKFFADMHRKDLHDDAEWMAKQVYLNVGNFLLGVAALGLDAVPIEGFDAAILDAEFGLKEKGYTSLVVVPVGHHSVEDFNATLPKSRLPQNITLTEV
In the case of B6, the Score [4] is reported as 4-5 and the IC50 [5] is reported as 160 µM.

B7: F124K: NTR mutant, phenylalanine 124 to lysine (protein)
chain: MDIISVALKRHSTKAFDASKKLTPEQAEQIKTLLQYSPSSTNSQPWHFIVASTEEGKARVAKSAAGNYVFNERKMLDASHVVVFCAKTAMDDVWLKLVVDQEDADGRFATPEAKAANDKGRKFKADMHRKDLHDDAEWMAKQVYLNVGNFLLGVAALGLDAVPIEGFDAAILDAEFGLKEKGYTSLVVVPVGHHSVEDFNATLPKSRLPQNITLTEV
For B7, the kcat [1] was 723 ± 9 min⁻¹, the Km [1] was 1000 ± 200 nM and the Km [2] was 53 ± 5 µM. The kcat [2] was 758 ± 15 min⁻¹, the “kinetic parameters compared with wild type” value [3] was “significant improvement in kcat/Km for both nucleotide and second substrate” and the Km [3] was 371 ± 12 µM. The kcat [3] was 343 ± 43 min⁻¹, the “nitroreductase activity with CB1954 compared with wild-type” value ([4]; CB1954) was “substantially greater activity with CB 1954 than the wild-type” and the Score [4] was 8-10. The IC50 [5] was 23 µM.

B8: N71D (protein)
chain: MDIISVALKRHSTKAFDASKKLTPEQAEQIKTLLQYSPSSTNSQPWHFIVASTEEGKARVAKSAAGNYVFDERKMLDASHVVVFCAKTAMDDVWLKLVVDQEDADGRFATPEAKAANDKGRKFFADMHRKDLHDDAEWMAKQVYLNVGNFLLGVAALGLDAVPIEGFDAAILDAEFGLKEKGYTSLVVVPVGHHSVEDFNATLPKSRLPQNITLTEV
B8 gave a Score [4] of 5 and an IC50 [5] of 110 µM.

B9: S40G (protein)
chain: MDIISVALKRHSTKAFDASKKLTPEQAEQIKTLLQYSPSGTNSQPWHFIVASTEEGKARVAKSAAGNYVFNERKMLDASHVVVFCAKTAMDDVWLKLVVDQEDADGRFATPEAKAANDKGRKFFADMHRKDLHDDAEWMAKQVYLNVGNFLLGVAALGLDAVPIEGFDAAILDAEFGLKEKGYTSLVVVPVGHHSVEDFNATLPKSRLPQNITLTEV
Work on B9 yielded a Score [4] of 5 and an IC50 [5] of 90 µM.

B10: G120S (protein)
chain: MDIISVALKRHSTKAFDASKKLTPEQAEQIKTLLQYSPSSTNSQPWHFIVASTEEGKARVAKSAAGNYVFNERKMLDASHVVVFCAKTAMDDVWLKLVVDQEDADGRFATPEAKAANDKSRKFFADMHRKDLHDDAEWMAKQVYLNVGNFLLGVAALGLDAVPIEGFDAAILDAEFGLKEKGYTSLVVVPVGHHSVEDFNATLPKSRLPQNITLTEV
For B10, the Score [4] was 4-6 and the IC50 [5] was 125 µM.

B11: Y68G F124Q (protein)
chain: MDIISVALKRHSTKAFDASKKLTPEQAEQIKTLLQYSPSSTNSQPWHFIVASTEEGKARVAKSAAGNGVFNERKMLDASHVVVFCAKTAMDDVWLKLVVDQEDADGRFATPEAKAANDKGRKFQADMHRKDLHDDAEWMAKQVYLNVGNFLLGVAALGLDAVPIEGFDAAILDAEFGLKEKGYTSLVVVPVGHHSVEDFNATLPKSRLPQNITLTEV
Work on B11 yielded a Score [4] of 4 and an IC50 [5] of 143 µM.

B12: Y68G F124W (protein)
chain: MDIISVALKRHSTKAFDASKKLTPEQAEQIKTLLQYSPSSTNSQPWHFIVASTEEGKARVAKSAAGNGVFNERKMLDASHVVVFCAKTAMDDVWLKLVVDQEDADGRFATPEAKAANDKGRKFWADMHRKDLHDDAEWMAKQVYLNVGNFLLGVAALGLDAVPIEGFDAAILDAEFGLKEKGYTSLVVVPVGHHSVEDFNATLPKSRLPQNITLTEV
For B12, the Score [4] was 5-7 and the IC50 [5] was 69 µM.
